According to patent US5712366, “Fabrication of nanoscale materials using self-assembling proteins” (The United States of America as represented by the …, dated 1998):
Changes are numbered by the printed parent chain.

Key:
[1] = target: T1, polypeptide B2 (amino acid sequence of FIG. 4B); test: turbidity at 400 nm on mixing at equal concentrations; gel analysis of the precipitate
T1 chain: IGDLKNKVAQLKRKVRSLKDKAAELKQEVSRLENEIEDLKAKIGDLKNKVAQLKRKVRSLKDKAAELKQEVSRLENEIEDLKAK
Source text: First, the interaction between polypeptides A2 and B2 was investigated using turbidity measurements at 400 nm. […] When the polypeptides were mixed at equal concentrations, a rapid increase in turbidity was seen. This was attributed to specific heterodimer formation, which subsequently associated into higher order structures that precipitated in solution. […] No similar increase in the turbidity of the homodimer solutions was observed prior to mixing.

[2] = target: T2, polypeptide C2 (amino acid sequence of FIG. 4C); test: surface plasmon resonance, one species immobilized onto a gold film
T2 chain: T1 chain with K12E, K14E, K54E, K56E
Experimental: Next, the interaction of polypeptide A2 with polypeptides B2 and C2, when both of the components were free in solution and when one species was immobilized onto a gold film, was examined. The immobilization tests were performed to measure the rates of association and dissociation between the complexes. Surface plasmon resonance was used to detect minute changes in refractive index that accompanied a specific binding event in the immediate vicinity of the metal surface. […] After an initial increase in refractive index due to solvent exchange, it is seen that the rate of association for the A2-B2 complex was more rapid and that the equilibrium response was achieved sooner. […] For the A2-C2 interaction, kass=3.46×10^3, kdiss=[…], and K_a=1.45×10^6.

B1: polypeptide A2 (amino acid sequence of FIG. 4A) (designed binder)
chain: IGDLENEVAQLEREVRSLEDEAAELEQKVSRLKNEIEDLKAEIGDLENEVAQLEREVRSLEDEAAELEQKVSRLKNEIEDLKAE
B1: binds [1]; binds [2].
